The source of these data is article PMC3995836.

pKd: −log10 of the molar value.

Test [1] concerns the target WW1 domain of human YAP2 (residues 171-205) (human) (UniProt P46937). Nature of the test: ITC.
Test [2] deals with WW2 domain of human YAP2 (residues 230-264) (human) (UniProt P46937). Kind of test: ITC.
Sequence of WW2 domain of human YAP2 (residues 230-264) (human) (P46937 230-264): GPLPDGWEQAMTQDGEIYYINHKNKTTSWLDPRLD

Sequence of WW1 domain of human YAP2 (residues 171-205) (human) (P46937 171-205): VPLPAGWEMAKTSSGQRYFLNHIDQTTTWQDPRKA

On to “ErbB4_PY3 peptide, alanine mutant PY3_A+5”, for which the pKd (commonly the negative decadic logarithm of the Kd, by convention in mol/L) is 4.82 in test [1] and 4.34 in test [2]. Besides, the dH in test [1] and in test [2] was -14.6 kcal/mol each time.

“ErbB4_PY3 peptide, alanine mutant PY3_A+2”: the dH in test [1] is -12.7 kcal/mol; in test [2] it was -10.1 kcal/mol. This substance showed a negative logarithm of the Kd (pKd) in test [2] of 3.90.

On to “ErbB4_PY3 peptide, wildtype (12-mer with the PY3 PPXY motif of the ICD of human ErbB4)”, for which the pKd in test [1] was 4.51; in test [2], 4.25. The dH in test [1] is -13.3 kcal/mol; in test [2] it was -7.72 kcal/mol.

In test [1], “ErbB4_PY3 peptide, alanine mutant PY3_A-2” gave a pKd of 4.35 and a dH of -16.1 kcal/mol. Moreover, in test [2], the pKd was 4.08 and the dH was -13.1 kcal/mol.

As to “ErbB4_PY3 peptide, alanine mutant PY3_A+6”, in test [1], the negative logarithm of the Kd (pKd) was 4.44 and the dH was -10.3 kcal/mol. In test [2], this substance had a pKd of 4.07 and a dH of -9.06 kcal/mol.

In test [1], “ErbB4_PY3 peptide, alanine mutant PY3_A-3” showed a pKd of 4.34 and a dH of -16.9 kcal/mol. Also, in test [2], the negative-log Kd (pKd) was 4.21 and the dH was -10.3 kcal/mol.

“ErbB4_PY3 peptide, alanine mutant PY3_A+4” had a negative logarithm of the Kd (pKd) in test [1] of 4.28. The dH in test [1] is -9.8 kcal/mol; in test [2], -8.61 kcal/mol.

Consider “ErbB4_PY3 peptide, alanine mutant PY3_A-1”, for which the pKd in test [1] is 4.15; in test [2], 3.96. The dH in test [1] was -15.9 kcal/mol; in test [2] it was -10.7 kcal/mol.

For the substance “ErbB4_PY2 peptide (12-mer with the PY2 PPXY motif of the ICD of human ErbB4)”, the negative logarithm of the Kd (pKd) in test [1] was 4.08; in test [2], 3.94. For the same substance, the dH in test [1] was -2.94 kcal/mol; in test [2] it was -4.23 kcal/mol.

In test [1], “ErbB4_PY1 peptide (12-mer with the PY1 PPXY motif of the ICD of human ErbB4)” showed a pKd of 3.95 and a dH of -6.14 kcal/mol. The same substance had a dH in test [2] of -3.9 kcal/mol.
